For three substances, stoichiometry N results are on record in publication PMC11497405.

Holding throughout (assay): SEC; size exclusion chromatography coupled online to ICP-sfMS (HPLC-ICP-MS) with diode array detection, metal-free HPLC system; apparent MW from a calibration curve; purified MTs with their bound metals
(SEC sorts molecules by how far they enter the pores of the column.)

Test [1] addresses native (non-tagged) Brassica napus metallothionein BnMT2 (Brassica napus).
Test [2] deals with native (non-tagged) Brassica napus metallothionein BnMT3a (Brassica napus).
For test [3], the target named is native (non-tagged) Brassica napus metallothionein BnMT3b (Brassica napus).

With “native (non-tagged) Brassica napus metallothionein BnMT2 (natural protein)”, the stoichiometry N in test [1] stood at 2.
As to “native (non-tagged) Brassica napus metallothionein BnMT3a (natural protein)”, the stoichiometry N in test [2] came out at 2.
“native (non-tagged) Brassica napus metallothionein BnMT3b (natural protein)”: in test [3], the stoichiometry N stood at 2.

The term stoichiometry N denotes the number of molecules, sites or subunits per partner or assembly.
